Laboratory results published in US20100168020A1 (Amgen, published 2010).

Legend:
[1] = molecular target: GDF-11 (Homo sapiens (Human)) (UniProt O95390); experiment: cell-based or functional assay
myostatin [2] = molecular target: T1, myostatin (human, UniProt O14793 267-375); experiment: cell-based or functional assay
T1 sequence: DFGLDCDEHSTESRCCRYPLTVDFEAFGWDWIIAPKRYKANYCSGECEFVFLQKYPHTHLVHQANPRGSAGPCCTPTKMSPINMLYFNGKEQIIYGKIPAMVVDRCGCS

activin A [3] = molecular target: T2, activin A (Homo sapiens (Human), UniProt P08476 311-426); experiment: cell-based or functional assay
T2 sequence: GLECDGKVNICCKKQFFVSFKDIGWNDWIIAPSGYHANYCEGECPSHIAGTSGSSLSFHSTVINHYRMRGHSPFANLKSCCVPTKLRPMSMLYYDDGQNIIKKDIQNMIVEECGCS

[4] = molecular target: GDF-11 (Homo sapiens (Human)) (UniProt O95390); experiment: KinExA solution equilibrium, ligand-coated beads, Cy5 anti-human Fc detection
myostatin [5] = molecular target: T1, myostatin; experiment: as above
Description: (§1) Solution-based equilibrium-binding assays using KinExA™ technology (Sapidyne Instruments, Inc.) were used to determine the dissociation equilibrium (KD) of ligand binding to ActRIIB-Fc polypeptides. UltraLink Biosupport beads (Pierce) was pre-coated with about 100 μg/ml each of myostatin, GDF-11, and activin A overnight, and then blocked with BSA. 1 pM and 3 pM of ActRIIB-Fc (E28W) (SEQ ID NO: 21) and svActRIIB-Fc (E28W, S44T) (SEQ ID NO: 10) samples were incubated with various concentrations (0.7 fM to 160 pM) of myostatin, activin A, and GDF-11 respectively in sample buffer at room temperature for 8 hours before being run through the ligand-coated beads. The amount of the bead-bound soluble receptor was quantified by fluorescent (Cy5) labeled goat anti-human-Fc antibody at 1 mg/ml in superblock. The binding signal is proportional to the concentration of free soluble receptor at equilibrium with a given myostatin, activin A, or GDF-11 concentration. KD was obtained from the nonlinear regression of the competition curves using a dual-curve one-site homogeneous binding model provided in the KinEx A™ software (Sapidyne Instruments, Inc.).

activin A [6] = molecular target: T2, activin A; experiment: as above
Description: as §1

| Binder | IC50, luciferase activity of C2C12/pMARE-luc reporter cells at 4 nM ligand [1] [nM] | IC50, luciferase activity of C2C12/pMARE-luc reporter cells at 4 nM ligand (myostatin [2]) [nM] | IC50, luciferase activity of C2C12/pMARE-luc reporter cells at 4 nM ligand (activin A [3]) [nM] | Kd [4] [pM] | Kd (myostatin [5]) [pM] | Kd (activin A [6]) [pM] |
| --- | --- | --- | --- | --- | --- | --- |
| ActRIIB-Fc (E28W) (Fc fusion, also called ActRIIB-IgG2Fc (E28W); ActRIIB-IgG Fc (E28W)) ETRWCIYYNANWELERTNQSGLERCEGEQDKRLHCYASWRNSSGTIELVKKGCWLDDFNCYDRQECVATEENPQVYFCCCEGNFCNERFTHLPEAGGPEVTYEPPPTAPTGGGGSVECPPCPAPPVAGPSVFLFPPKPKDTLMISRTPEVTCVVVDVSHEDPEVQFNWYVDGVEVHNAKTKPREEQFNSTFRVVSVLTVVHQDWLNGKEYKCKVSNKGLPAPIEKTISKTKGQPREPQVYTLPPSREEMTKNQVSLTCLVKGFYPSDIAVEWESNGQPENNYKTTPPMLDSDGSFFLYSKLTVDKSRWQQGNVFSCSVMHEALHNHYTQKSLSLSPGK | 2.4 | 0.95 | 3.2 | 0.1 | 0.1 | 0.2 |
| svActRIIB-Fc (E28W, S44T) (Fc fusion, Made in 293-6E or CHO cells; also called svActRIIB-IgG2Fc (E28W, S44T); svActRIIB-IgG Fc (E28W, S44T)) ETRWCIYYNANWELERTNQTGLERCEGEQDKRLHCYASWRNSSGTIELVKKGCWLDDFNCYDRQECVATEENPQVYFCCCEGNFCNERFTHLPEAGGPEVTYEPPPTAPTGGGGSVECPPCPAPPVAGPSVFLFPPKPKDTLMISRTPEVTCVVVDVSHEDPEVQFNWYVDGVEVHNAKTKPREEQFNSTFRVVSVLTVVHQDWLNGKEYKCKVSNKGLPAPIEKTISKTKGQPREPQVYTLPPSREEMTKNQVSLTCLVKGFYPSDIAVEWESNGQPENNYKTTPPMLDSDGSFFLYSKLTVDKSRWQQGNVFSCSVMHEALHNHYTQKSLSLSPGK | 2.4 | 1.07 | 3.6 | 0.1 | 0.1 | 0.1 |
